# Earlier results, collected in paper PMC7261628.
# Target: Cathepsin B propeptide (prosegment) (UniProt P07858)
# Assay: Enzyme inhibition kinetics
Substance,Ki (pH 4.0) [nM],Ki (pH 6.0) [nM]
Cathepsin B His110Ala mutant H110A,2,–
"Cathepsin B, mature enzyme (wild type)",82,3.7
